One substance from paper PMC3544810 can be followed below.

The target of this test is PSD95 (HA-PSD95, VN-PSD95 plasmids) (UniProt P31016). The test can be described thus: co-immunoprecipitation, GFP-SPIN90 and HA-PSD95. The following applies: reference: GFP-SPIN90 WT; sites Y85,Y161,Y227.

In the case of “SPIN90 (from UniProt Q9NZQ3) GFP-SPIN90 YF (Y85,161,227F)”, the “binding against the reference” value is listed as “weaker”.
